Data taken from patent publication US20130059773A1 (published 2013).

Molecular target: T1, Proliferating Cell Nuclear Antigen (PCNA), wild type, cellular (cytosolic PCNA of human neutrophils) (human, UniProt P12004 1-261)
T1 construct: Endogenous protein in human neutrophil cytosol in the co-immunoprecipitations; Expressed from pcDNA3-PCNA in PLB985 cells in the caspase-9 activity row; also called cytoplasmic PCNA; PLB985-PCNA (overexpressed form)
Assay: co-immunoprecipitation from neutrophil cytosol, western blot
Procedure: Western blot analysis and co-immunoprecipitation experiments. […] Cytosol (500 mg) was mixed with 50 ml of protein G and Ab5 pAb and incubated for 30 min at 4° C. under shaking. The sample was loaded onto a column containing Sepharose-coated magnetic beads (Milteny), washed with a stringent washing buffer (50 mM Tris, 500 mM NaCl, 1% NP-40, 0.5% Triton X-100). The column was washed twice with this buffer, twice with the same buffer except that the NaCl was 300 mM and, finally, 5 times with a hyposaline buffer (20 mM Tris pH 7.5). The sample was eluted from the column with 30 ml 5× sample buffer and analyzed by Western blotting using different mAb to potential partners.

T1 sequence (P12004 whole entry): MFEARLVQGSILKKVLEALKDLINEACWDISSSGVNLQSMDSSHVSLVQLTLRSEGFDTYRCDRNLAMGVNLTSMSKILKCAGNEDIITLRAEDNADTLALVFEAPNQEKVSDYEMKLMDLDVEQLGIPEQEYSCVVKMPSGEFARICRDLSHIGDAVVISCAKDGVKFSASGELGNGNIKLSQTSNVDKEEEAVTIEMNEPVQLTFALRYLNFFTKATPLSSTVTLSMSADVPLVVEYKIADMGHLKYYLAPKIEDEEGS

B1: Bid (other, human, UniProt P55957 1-195, looked up)
chain: MDCEVNNGSSLRDECITNLLVFGFLQSCSDNSFRRELDALGHELPVLAPQWEGYDELQTDGNRSSHSRLGRIEADSESQEDIIRNIARHLAQVGDSMDRSIPPGLVNGLALQLRNTSRSEEDRNRDLATALEQLLQAYPRDMEKEKTMLVLALLLAKKVASHTPSLLRDVFHTTVNFINQNLRTYVRSLARNGMD
  binding result: no binding
